{"source": "paper PMC12415521", "about": "(Methods in molecular biology (Clifton, N.J.), 2023)", "key": {"CD2 domain of cpSRP43 [1]": {"target": "T1, CD2 domain of cpSRP43", "T1 chain": "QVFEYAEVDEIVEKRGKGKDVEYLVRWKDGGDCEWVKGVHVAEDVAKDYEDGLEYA", "assay": "ITC"}, "CD2 domain of cpSRP43 [2]": {"target": "T1, CD2 domain of cpSRP43", "assay": "ITC"}}, "note": "Like-named read-outs stand apart in the source and are kept apart here."}
{"binder": "APPGTARRKRKADS", "note": "[54-peptide]", "values": [{"measurement": "Kd", "setting": "CD2 domain of cpSRP43 [1]", "value": 1.27, "unit": "µM"}, {"measurement": "Kd", "setting": "CD2 domain of cpSRP43 [2]", "value": 1.42, "unit": "µM"}]}
